From US20140087995A1 (published 2014)
Numbered stars: 1 amine (or outer) side, 2 acyl side, 3 side chain; on linkers, the order of the positions; unused ones are H or OH. Bridge positions count the residues as written; N and C are the ends. Side chains are listed from the residue outwards. Ends that are not written are not given here. * marks the point of attachment. C20 diacid = O=C(O)CCCCCCCCCCCCCCCCCCC(=O)*; γGlu = O=C(O)[C@H](CCC(=O)[*:2])N[*:1]; AEEA = NCCOCCOCC(=O)O

T1: human calcitonin receptor (human, UniProt P30988 25-474)
T1 construct: whole, on cells; Assayed as cell membranes of BHK tk'ts 13 cells stably transfected with the human calcitonin receptor (Assay VII); also called hCTR; hCT
T1 sequence (looked up): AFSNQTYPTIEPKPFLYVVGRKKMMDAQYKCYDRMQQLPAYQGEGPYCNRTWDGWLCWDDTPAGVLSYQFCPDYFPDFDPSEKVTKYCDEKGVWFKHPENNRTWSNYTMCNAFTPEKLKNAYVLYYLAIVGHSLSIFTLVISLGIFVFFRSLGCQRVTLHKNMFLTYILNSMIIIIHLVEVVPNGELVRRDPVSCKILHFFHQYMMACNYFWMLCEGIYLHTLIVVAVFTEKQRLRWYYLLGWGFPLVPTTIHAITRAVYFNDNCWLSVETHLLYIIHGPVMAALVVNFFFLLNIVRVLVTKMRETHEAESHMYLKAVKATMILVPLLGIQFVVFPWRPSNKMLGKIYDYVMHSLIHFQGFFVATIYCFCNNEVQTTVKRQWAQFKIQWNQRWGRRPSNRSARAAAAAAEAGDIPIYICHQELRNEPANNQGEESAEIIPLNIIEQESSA

B1: N^ε1-[2-[2-[2-[[(4S)-4-carboxy-4-(19-carboxynonadecanoylamino)butanoyl]amino]ethoxy]ethoxy]acetyl]-[Thr14,Arg17,Pro21,Pro27,Pro31]-h-amylin (peptide)
peptide: K([AEEA-γGlu-C20 diacid])CNTATCATQRLATFLRHSSPNFGAIPSSTPVGSNTY-NH2
modifications: disulfide 2-7; N-terminus assumed
SMILES: CC[C@H](C)[C@H](NC(=O)[C@H](C)NC(=O)CNC(=O)[C@H](Cc1ccccc1)NC(=O)[C@H](CC(N)=O)NC(=O)[C@@H]1CCCN1C(=O)[C@H](CO)NC(=O)[C@H](CO)NC(=O)[C@H](Cc1c[nH]cn1)NC(=O)[C@H](CCCNC(=N)N)NC(=O)[C@H](CC(C)C)NC(=O)[C@H](Cc1ccccc1)NC(=O)[C@@H](NC(=O)[C@H](C)NC(=O)[C@H](CC(C)C)NC(=O)[C@H](CCCNC(=N)N)NC(=O)[C@H](CCC(N)=O)NC(=O)[C@@H](NC(=O)[C@H](C)NC(=O)[C@@H]1CSSC[C@H](NC(=O)[C@@H](N)CCCCNC(=O)COCCOCCNC(=O)CC[C@H](NC(=O)CCCCCCCCCCCCCCCCCCC(=O)O)C(=O)O)C(=O)N[C@@H](CC(N)=O)C(=O)N[C@@H]([C@@H](C)O)C(=O)N[C@@H](C)C(=O)N[C@@H]([C@@H](C)O)C(=O)N1)[C@@H](C)O)[C@@H](C)O)C(=O)N1CCC[C@H]1C(=O)N[C@@H](CO)C(=O)N[C@@H](CO)C(=O)N[C@H](C(=O)N1CCC[C@H]1C(=O)N[C@H](C(=O)NCC(=O)N[C@@H](CO)C(=O)N[C@@H](CC(N)=O)C(=O)N[C@H](C(=O)N[C@@H](Cc1ccc(O)cc1)C(N)=O)[C@@H](C)O)C(C)C)[C@@H](C)O
notes: also called compound 75
B2: N^ε1-[(4S)-4-carboxy-4-(19-carboxynonadecanoylamino)butanoyl]-[Ala14,Arg17,Pro21,Pro27,His34]-h-amylin (peptide)
peptide: K([γGlu-C20 diacid])CNTATCATQRLAAFLRHSSPNFGAIPSSTNVGHNTY-NH2
modifications: disulfide 2-7; N-terminus assumed
SMILES: CC[C@H](C)[C@H](NC(=O)[C@H](C)NC(=O)CNC(=O)[C@H](Cc1ccccc1)NC(=O)[C@H](CC(N)=O)NC(=O)[C@@H]1CCCN1C(=O)[C@H](CO)NC(=O)[C@H](CO)NC(=O)[C@H](Cc1c[nH]cn1)NC(=O)[C@H](CCCNC(=N)N)NC(=O)[C@H](CC(C)C)NC(=O)[C@H](Cc1ccccc1)NC(=O)[C@H](C)NC(=O)[C@H](C)NC(=O)[C@H](CC(C)C)NC(=O)[C@H](CCCNC(=N)N)NC(=O)[C@H](CCC(N)=O)NC(=O)[C@@H](NC(=O)[C@H](C)NC(=O)[C@@H]1CSSC[C@H](NC(=O)[C@@H](N)CCCCNC(=O)CC[C@H](NC(=O)CCCCCCCCCCCCCCCCCCC(=O)O)C(=O)O)C(=O)N[C@@H](CC(N)=O)C(=O)N[C@@H]([C@@H](C)O)C(=O)N[C@@H](C)C(=O)N[C@@H]([C@@H](C)O)C(=O)N1)[C@@H](C)O)C(=O)N1CCC[C@H]1C(=O)N[C@@H](CO)C(=O)N[C@@H](CO)C(=O)N[C@H](C(=O)N[C@@H](CC(N)=O)C(=O)N[C@H](C(=O)NCC(=O)N[C@@H](Cc1c[nH]cn1)C(=O)N[C@@H](CC(N)=O)C(=O)N[C@H](C(=O)N[C@@H](Cc1ccc(O)cc1)C(N)=O)[C@@H](C)O)C(C)C)[C@@H](C)O
notes: also called compound 93
B3: N^ε1-[(4S)-4-carboxy-4-(19-carboxynonadecanoylamino)butanoyl]-[Ala14,Arg17,Pro21,Pro27,Pro34]-h-amylin (peptide)
peptide: K([γGlu-C20 diacid])CNTATCATQRLAAFLRHSSPNFGAIPSSTNVGPNTY-NH2
modifications: disulfide 2-7; N-terminus assumed
SMILES: CC[C@H](C)[C@H](NC(=O)[C@H](C)NC(=O)CNC(=O)[C@H](Cc1ccccc1)NC(=O)[C@H](CC(N)=O)NC(=O)[C@@H]1CCCN1C(=O)[C@H](CO)NC(=O)[C@H](CO)NC(=O)[C@H](Cc1c[nH]cn1)NC(=O)[C@H](CCCNC(=N)N)NC(=O)[C@H](CC(C)C)NC(=O)[C@H](Cc1ccccc1)NC(=O)[C@H](C)NC(=O)[C@H](C)NC(=O)[C@H](CC(C)C)NC(=O)[C@H](CCCNC(=N)N)NC(=O)[C@H](CCC(N)=O)NC(=O)[C@@H](NC(=O)[C@H](C)NC(=O)[C@@H]1CSSC[C@H](NC(=O)[C@@H](N)CCCCNC(=O)CC[C@H](NC(=O)CCCCCCCCCCCCCCCCCCC(=O)O)C(=O)O)C(=O)N[C@@H](CC(N)=O)C(=O)N[C@@H]([C@@H](C)O)C(=O)N[C@@H](C)C(=O)N[C@@H]([C@@H](C)O)C(=O)N1)[C@@H](C)O)C(=O)N1CCC[C@H]1C(=O)N[C@@H](CO)C(=O)N[C@@H](CO)C(=O)N[C@H](C(=O)N[C@@H](CC(N)=O)C(=O)N[C@H](C(=O)NCC(=O)N1CCC[C@H]1C(=O)N[C@@H](CC(N)=O)C(=O)N[C@H](C(=O)N[C@@H](Cc1ccc(O)cc1)C(N)=O)[C@@H](C)O)C(C)C)[C@@H](C)O
notes: also called compound 94
B4: N^ε1-[(4S)-4-carboxy-4-(19-carboxynonadecanoylamino)butanoyl]-[Arg14,Arg17,Pro21,Pro27,Pro31]-h-amylin (peptide)
peptide: K([γGlu-C20 diacid])CNTATCATQRLARFLRHSSPNFGAIPSSTPVGSNTY-NH2
modifications: disulfide 2-7; N-terminus assumed
SMILES: CC[C@H](C)[C@H](NC(=O)[C@H](C)NC(=O)CNC(=O)[C@H](Cc1ccccc1)NC(=O)[C@H](CC(N)=O)NC(=O)[C@@H]1CCCN1C(=O)[C@H](CO)NC(=O)[C@H](CO)NC(=O)[C@H](Cc1c[nH]cn1)NC(=O)[C@H](CCCNC(=N)N)NC(=O)[C@H](CC(C)C)NC(=O)[C@H](Cc1ccccc1)NC(=O)[C@H](CCCNC(=N)N)NC(=O)[C@H](C)NC(=O)[C@H](CC(C)C)NC(=O)[C@H](CCCNC(=N)N)NC(=O)[C@H](CCC(N)=O)NC(=O)[C@@H](NC(=O)[C@H](C)NC(=O)[C@@H]1CSSC[C@H](NC(=O)[C@@H](N)CCCCNC(=O)CC[C@H](NC(=O)CCCCCCCCCCCCCCCCCCC(=O)O)C(=O)O)C(=O)N[C@@H](CC(N)=O)C(=O)N[C@@H]([C@@H](C)O)C(=O)N[C@@H](C)C(=O)N[C@@H]([C@@H](C)O)C(=O)N1)[C@@H](C)O)C(=O)N1CCC[C@H]1C(=O)N[C@@H](CO)C(=O)N[C@@H](CO)C(=O)N[C@H](C(=O)N1CCC[C@H]1C(=O)N[C@H](C(=O)NCC(=O)N[C@@H](CO)C(=O)N[C@@H](CC(N)=O)C(=O)N[C@H](C(=O)N[C@@H](Cc1ccc(O)cc1)C(N)=O)[C@@H](C)O)C(C)C)[C@@H](C)O
notes: also called compound 63
B5: N^ε1-[(4S)-4-carboxy-4-(19-carboxynonadecanoylamino)butanoyl]-[Arg14,Arg17,Pro21,Pro27,Pro34]-h-amylin (peptide)
peptide: K([γGlu-C20 diacid])CNTATCATQRLARFLRHSSPNFGAIPSSTNVGPNTY-NH2
modifications: disulfide 2-7; N-terminus assumed
SMILES: CC[C@H](C)[C@H](NC(=O)[C@H](C)NC(=O)CNC(=O)[C@H](Cc1ccccc1)NC(=O)[C@H](CC(N)=O)NC(=O)[C@@H]1CCCN1C(=O)[C@H](CO)NC(=O)[C@H](CO)NC(=O)[C@H](Cc1c[nH]cn1)NC(=O)[C@H](CCCNC(=N)N)NC(=O)[C@H](CC(C)C)NC(=O)[C@H](Cc1ccccc1)NC(=O)[C@H](CCCNC(=N)N)NC(=O)[C@H](C)NC(=O)[C@H](CC(C)C)NC(=O)[C@H](CCCNC(=N)N)NC(=O)[C@H](CCC(N)=O)NC(=O)[C@@H](NC(=O)[C@H](C)NC(=O)[C@@H]1CSSC[C@H](NC(=O)[C@@H](N)CCCCNC(=O)CC[C@H](NC(=O)CCCCCCCCCCCCCCCCCCC(=O)O)C(=O)O)C(=O)N[C@@H](CC(N)=O)C(=O)N[C@@H]([C@@H](C)O)C(=O)N[C@@H](C)C(=O)N[C@@H]([C@@H](C)O)C(=O)N1)[C@@H](C)O)C(=O)N1CCC[C@H]1C(=O)N[C@@H](CO)C(=O)N[C@@H](CO)C(=O)N[C@H](C(=O)N[C@@H](CC(N)=O)C(=O)N[C@H](C(=O)NCC(=O)N1CCC[C@H]1C(=O)N[C@@H](CC(N)=O)C(=O)N[C@H](C(=O)N[C@@H](Cc1ccc(O)cc1)C(N)=O)[C@@H](C)O)C(C)C)[C@@H](C)O
notes: also called compound 65

These binders were tested against T1, human calcitonin receptor (assay: SPA competition vs 125I-calcitonin, membranes of BHK cells with human calcitonin receptor (Assay VII)).
Procedure, shortened: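 BHK hCTR membranes 35 ng/μL + SPA beads 0.05 mg/well; buffer 50 mM Hepes pH 7.4, 1 mM CaCl2, 5 mM MgCl₂, 0.1% OA, 0.02% Tween20. 120 min, 25° C., shaking. Scintillation count; IC50 by one-site binding competition.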

How did the IC50 turn out when B1 was run?
The IC50 was 60.9 nM.

For B2, which IC50 is on record?
The IC50 was 17.8 nM.

With B3 as the binder, how does the IC50 read?
The IC50 was 6.86 nM.

Which IC50 does the source give for B4 here?
The IC50 was 130 nM.

With B5 as the binder, how does the IC50 read?
The IC50 was 53.5 nM.

The binders below were run against T1, human calcitonin receptor (assay: IC50 at hCTR divided by IC50 at hAmylin-R (SPA competition assays V and VII)).
Procedure, shortened: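 Membranes (35 ng/μL final) + SPA beads, 50 mM Hepes pH 7.4 buffer with 1 mM CaCl2, 5 mM MgCl₂, 0.1% OA, 0.02% Tween20; 120 min, 25° C, shaking; centrifuged, counted; IC₅₀ by one-site binding competition.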

B1 was tested. Which “Ratio hCT/hAmylin binding” value did it give?
The value was 91.4.

Which “Ratio hCT/hAmylin binding” value does the source give for B2 here?
Its value is 101.

How did the “Ratio hCT/hAmylin binding” value turn out when B3 was run?
The value was 46.3.

With B4 as the binder, how does the “Ratio hCT/hAmylin binding” value read?
The value was 157.

For B5, which “Ratio hCT/hAmylin binding” value is on record?
The value was 82.4.
